We go through 4 molecules from PMC12148588 (2025).

Experiment [1] deals with T1, SARS-CoV-2 RBD of the Wuhan strain (Acro Biosystems SPD-C82E9-25) (SARS-CoV-2, UniProt P0DTC2). The experiment is described as follows: SPR. For orientation: In SPR one partner is held on a chip, and binding of the other changes the refractive index at the surface.
Experiment [2] concerns the target T1, SARS-CoV-2 RBD of the Wuhan strain …. The experiment is described as follows: SPR. The source holds these as a separate data set.

Numbering of substitutions follows the chain as printed. Where two headings read alike, the source gives them in different places.

B1: MB043_CL39 (antibody, V domains shown)
VH: EVQLVETGGGLIHPGGSLRLSCAASEFIVSYNYMSWVRQAPGKGLEWVSVIYSGGSTFYADAVKGRFTISRDSSKNTLDLLMNSLRVEDTAVYYCARVLPSNTDYFDYWGQGILVTVSS
VL: QSVLTQPPSVSGATGQRVTISCTGSNSNIGAGSDVHWYQQLPGAAPKLLIYVNNNRPSGVPDRFSGSKSGTSASLAITGLQAEDEADYYCQSYDSSLSGYVFGTGTKVTVL
One may read the Kd as the equilibrium constant for the complex coming apart. Low readings indicate higher affinity, high ones lower affinity. In experiment [1], B1 displayed a Kd of 0.0273 nM.

B2: MB027_D06L (antibody, V domains shown)
VH: B1 VH with H13Q, E26G, Y31S, V50I, S73N, L81Q, V87A, S101T, N102S
VL: B1 VL with T14P, Q40H, A44T, K47T, V52S, N54S, G99T
As for B2, binding in experiment [1] was characterised by a dissociation constant (Kd) of 7.17 nM.

B3: MB025_A07K (antibody, V domains shown)
VH: EVQLVESGGDLVQPGGSLRLSCAASEFIVSSNYMSWVRQTPGKGLEWISVLYSGGSTFYADSVKGRFTISRDNSKNTLYLQMNSLRVEDTAVYYCARDFGEFWFDYWGQGTLVTVSS
VL: EIVLTQSPGTLSLSPGERATLSCRASQTINSYLAWYQQKPGQAPRLLIYGASSRATGIPDRFSGSGSGTDFTLTISRLEPEDFAVYYCQQYGNSPRTFGQGTKVEIK
On to B3, for which, in experiment [2], the Kd came out at 0.159 nM.

B4: MB025_A09L (antibody, V domains shown)
VH: EVQLVESGGGLVQPGGSLRLSCAASGFSVSIFYMNWVRQAPGKGLEWVSSVYSGETTYYADSVRGRFTISRDNSKSTLYLQMNSLRPEDTAVYYCARGVDYRTNRTEGGAFDIWGQGTMVTVSS
VL: QSALTQPASVSGSPGQSIPISCTGTSSDFGNYNLISWYQQHPGKAPKLMIYEGTKRPSGVSDRFSGSKSANTASLTISGLQAEDEADYYCCSYAGSSTWMFGGGTKLTVL
In turn, B4 returned a Kd in experiment [2] of 0.00491 nM.
